Results as given in patent US11781164B2, “Demethylation of reticuline and derivatives thereof with fungal cytochrome P450” (priority 2017, dated 2023).

What was measured:
[1] = system: thebaine; test: In vitro N-demethylation of thebaine by mammalian cytochrome P450s in crude yeast cell lysates; details: crude cell extract with human CPR and cytochrome b5; 0.2 mM substrate, pH 7, 30° C., approximately 20 hours; compared to negative control strain without P450s
[2] = system: codeine; test: In vitro N-demethylation of codeine by mammalian cytochrome P450s in crude yeast cell lysates; details: crude cell extract with human CPR and cytochrome b5; 0.2 mM substrate, pH 7, 30° C., approximately 20 hours; compared to negative control strain without cytochrome P450s
[3] = system: salutaridine; test: In vitro N-demethylation of salutaridine by mammalian cytochrome P450s in crude yeast cell lysates; details: crude cell extract with human CPR and cytochrome b5; 0.2 mM substrate, pH 7, 30° C., approximately 20 hours; compared to negative control strain without cytochrome P450s
[4] = system: oripavine; test: In vitro N-demethylation of oripavine by mammalian cytochrome P450s in crude yeast cell lysates; details: crude cell extract with human CPR and cytochrome b5; 0.2 mM substrate, pH 7, 30° C., approximately 20 hours; compared to negative control strain without cytochrome P450s
[5] = system: thebaine; test: Bioconversion of thebaine (N-demethylation to northebaine) by S. cerevisiae expressing cytochrome P450s and CPRs, LC-MS; details: 0.5 mM thebaine; for activity towards thebaine, converting it to northebaine: co-expressed with CPR_DN5866_c0_g1_i1_Cd9, CPR_DN10898_c0_g1_i1_1A or Cel_CPR_co (at least one of the tested CPRs)
[6] = system: oripavine; test: Bioconversion of oripavine (N-demethylation to nororipavine) by S. cerevisiae expressing cytochrome P450s and CPRs, LC-MS; details: 0.5 mM oripavine
[7] = system: thebaine; test: Conversion of thebaine by demethylases heterologously expressed in Aspergillus nidulans; details: 0.5 mM thebaine, Minimal Medium pH 7, 84 hours; supernatant, LC-MS
[8] = system: thebaine; test: In planta conversion of thebaine by transient expression of demethylases and CPRs in Nicotiana benthamiana leaves; details: co-expressed with CPR_DN10898_c0_g1_i1_co or Cel_CPR_co; leaves re-infiltrated with 0.5 mM thebaine after 4 days, measured 1 day after
[9] = pH 7, co-expressed with Cel_CPR_co, 72 h
[10] = pH 7, 72 h, co-expressed with Cel_CPR

Hs_CYP3A4: Cytochrome P450 3A4 (P08684), Homo sapiens
in vitro N-demethylation activity on Thebaine [1]: detected
in vitro N-demethylation activity on codeine [2]: detected
in vitro N-demethylation activity on salutaridine [3]: detected
in vitro N-demethylation activity on oripavine [4]: detected

B1: Hs_CYP3A5: Cytochrome P450 3A5 (P20815), Homo sapiens (protein, UniProt P20815 1-502, looked up)
Cytochrome P450 3A5: MDLIPNLAVETWLLLAVSLVLLYLYGTRTHGLFKRLGIPGPTPLPLLGNVLSYRQGLWKFDTECYKKYGKMWGTYEGQLPVLAITDPDVIRTVLVKECYSVFTNRRSLGPVGFMKSAISLAEDEEWKRIRSLLSPTFTSGKLKEMFPIIAQYGDVLVRNLRREAEKGKPVTLKDIFGAYSMDVITGTSFGVNIDSLNNPQDPFVESTKKFLKFGFLDPLFLSIILFPFLTPVFEALNVSLFPKDTINFLSKSVNRMKKSRLNDKQKHRLDFLQLMIDSQNSKETESHKALSDLELAAQSIIFIFAGYETTSSVLSFTLYELATHPDVQQKLQKEIDAVLPNKAPPTYDAVVQMEYLDMVVNETLRLFPVAIRLERTCKKDVEINGVFIPKGSMVVIPTYALHHDPKYWTEPEEFRPERFSKKKDSIDPYIYTPFGTGPRNCIGMRFALMNMKLALIRVLQNFSFKPCKETQIPLKLDTQGLLQPEKPIVLKVDSRDGTLSGE
in vitro N-demethylation activity on Thebaine [1]: detected
in vitro N-demethylation activity on codeine [2]: detected
in vitro N-demethylation activity on salutaridine [3]: detected
in vitro N-demethylation activity on oripavine [4]: detected

B2: Ar_ORZ22410_co: codon-optimized putative cytochrome P450 A0A1X2IUG5 from Absidia repens (protein, listed as Absidia repens)
chain: MNKLFPVGTSNKKKAVLLSLGATVALICRAIYRIYYVPRSLRHIPSVGYFRLIRSILRREDATTRARTVYGPAIKKGNGIYLANFPITWSVFVSSPIAAKSVLMKTDNFPKSMEIFHALGKENPVVRFFGIDNVAIVNGEKWKKQRKVMNPAFHRAMPVQMFGRLMLKGFKNIEKQDYQVPILDFFQRLTLDALGIAGFGFDFHSVDDPESIWTKTYENVRLGLRSPFSFLFPSMDWLLKYIIPGRKELDKSVDKLNALLMSMAQERRLQVRASIDDNVPDSEKDLLTLMLEAELRGEGTASDEQLRSNLAVFFLAGHETTANTMSFCLYNLAMNKEVQSKARQEVLTVLGDEPVDILPQIDELRQMPYIDMVLKENLRRFGPASMLIARKSQEDFDLNGVFIPKNTPVVVETHALHHNPDVWKNPEQFDPERFAPGGEHETCHEGMAWLPFSSGSRGCLGMNFSLAEQRTFLVMLLRKYEWELPEDSIHRNGVKIQNFQNAAPESLEIKFSSRY
activity towards thebaine, converting it to northebaine ([5]; pH 7, 72 h): displayed activity towards thebaine
nororipavine production when oripavine was administered ([6]; pH 7, 72 h, co-expressed with CPR_DN5866_c0_g1_i1_Cd9, CPR_DN10898_c0_g1_i1_1A or Cel_CPR_co): capable of producing nororipavine

B3: P450_DN12791_co: P450_DN_12791 from T. piriforme, codon optimized for S. cerevisiae (pEV32227) (protein)
chain: MAILQNLVLQSDQRHLGVVTAAVFLSAYALYRHESKKELGNECPTVPYTNPMFGSTDEYRKNPAAFVEKWSAALGPVFRVHIFGRMQTVVSGRYVREVLFNDNFSFVEGIRTRFDLRLLTGIPNSHLNDKDVREVVVKSLTAQMKKYTPRAVHYLSVGLQEALGDLKDPRTLDNLFLTVQNMVAKASASIFVGEELCNNIELVDTFKHVTSDIGSEIRLDNTWLEFFKTINQIRMWYVGKHSPRVTKHRRQLIQAMAPEIDRRLQGLAGNDPSWTRPEDILQEIMENYPSPSTVPADIYTYYANWMIVLIFASVHTTTEHATIVLYRLLQQPELIDELLQEQKEALGQGTVFTGEVIRKLVKLDSVCRESLRIKNEYFGLPHRNMSHENISLSNGVVIKPGDNVMLNVWTNHHDSDLQKDVHGNHDKFEPFRYVNADRPATKIGDDYLIFGEGKHACPGRWFALQEIKTIVSVLIRDYTLTPCGPIVFPSGTSTGIPSGEVTIQRKSEV
modifications: codon-optimized; Thamnostylum piriforme
northebaine production in Aspergillus nidulans vs vector control [7]: production of northebaine was achieved
thebaine N-demethylation activity ([5]; pH 7, co-expressed with Cel_CPR_co, 72 h, no significant difference between codon optimized and non-codon optimized versions): lower
nororipavine titers [6, 9]: highest nororipavine titers

B4: Lr_P450_co: P450 from Lichtheimia ramosa, codon optimized for S. cerevisiae (protein, listed as Lichtheimia ramosa)
chain: MTEIKEHIYRYRHYIGVAAAVALVCQQVYYRIFRIPKNLRHIPAIPYGQQLKALRSDEALTSRTKRLVFPLLSKCNGVYLNRMPFKWTIYVADPEIARAILFKPEFGHKTRSVTDSLDKNSSLFEFVGDDNIAIVNGHEWKEQRKIMNPAFHRATPVGMFGSLMPKVFRLVEEQPTLPALDLMQKLTLDALGKSVFGFEFGALDDPDSVWVKTYRQVFDSFTDVFSLVFPRLDPIYRYFSAKHREQYNAVYKLIDLLDGMADKKRSMLQDASNSDIKDVPDHEKDLLQLMLEAELRGEGSWTKRELRHNMAIFFVAGQDTTSHALTFCLYLLAKNQDIQKKAREEILNVFGDEPKDVFPTLEDCKKLNYLDMVIKESMRIYPPANDVLARDVNEDLNVKGVFIPKGSMVSVDIHALHHRPDLWHEPDKFNPDRFLPGGEHDSHVGVTYAPFSSGSRQCIALKFATMQQRVVLSMLLRKYEWELPKDSKHKDSIQFQIPFNIAPKDLELTFHKRY
modifications: codon-optimized
northebaine production in Aspergillus nidulans vs vector control [7]: not apparent
northebaine levels in N. benthamiana leaves vs negative P19 control [8]: clear increase in northebaine
activity towards thebaine, converting it to northebaine ([5]; pH 7, 72 h): performing the best conversion of thebaine into northebaine
northebaine titer [5, 9]: more than 7 mg/L
northebaine titers higher compared to P450_DN15259_co [5, 9]: 2 fold

B5: Ps_CODM_co: O-demethylase D4N502 from Papaver somniferum, codon optimized; positive control (protein, listed as Papaver somniferum)
chain: METPILIKLGNGLSIPSVQELAKLTLAEIPSRYTCTGESPLNNIGASVTDDETVPVIDLQNLLSPEPVVGKLELDKLHSACKEWGFFQLVNHGVDALLMDNIKSEIKGFFNLPMNEKTKYGQQDGDFEGFGQPYIESEDQRLDWTEVFSMLSLPLHLRKPHLFPELPLPFRETLESYLSKMKKLSTVVFEMLEKSLQLVEIKGMTDLFEDGLQTMRMNYYPPCPRPELVLGLTSHSDFSGLTILLQLNEVEGLQIRKEERWISIKPLPDAFIVNVGDILEIMTNGIYRSVEHRAVVNSTKERLSIATFHDSKLESEIGPISSLVTPETPALFKRGRYEDILKENLSRKLDGKSFLDYMRM
modifications: codon-optimized
conversion of thebaine into oripavine in N. benthamiana leaves vs negative control [8]: capable of converting thebaine into oripavine
northebaine levels in N. benthamiana leaves vs negative P19 control [8]: not apparent

B6: P450_DN5615_c2 g1_i9_co: codon-optimized cytochrome P450 candidate from Cunninghamella echinulata (protein, listed as Cunninghamella echinulata)
chain: MSQFISTISQYWDVNNFIDQQAWSRFYETYLLKYTDSKAKRLTIGVSVSLLLLGYGIKRLLTPPKHLRHIKHASFLRFTYNFVIKGVTPKEMHTTVSKKIVEENNGFYLQLERTGWVVYVANPEAVKQVLLKSDIFPKMDFSKLASEEGSYFEKFIGFKNILMTTGSEWLKHRKLTNPAFHRSLPAKLFGETAQGLFKIWDNEYNDKPFEVNIHNMNERITLDIIGKAGFAFDFNAVADEKSPWKKTYDIINTAASDPLFFMFPILENKLLWLFPKRQESFKKLDEWKAMLTSVIENKRRLLKDNIDQGVEEAEKDLLTLMIESEFRGEGVLTKEELIGNLTVFFLAGHDTTSFALTSAIYYMARYPEIQEKARQEVNSILCPNGEPNEGILPTIEDTKKLVYLNQIMKESMRIGNPVLFLLSPRQATKDFNLNGTFIPKGTQVNINIHDLHHSSNVWDDPDTFNPDRFAPGGEADKKTGIAWVPFSNGSRQCLGMNFSLLEQRVILSCLLRKYEWTLPENSIHKNDMISKFDLIPSPIDMKIRFERRY
modifications: codon-optimized
demethylase activity towards thebaine (northebaine), C. echinulata P450 candidates [5, 10]: displayed demethylase activity towards thebaine and oripavine
demethylase activity towards oripavine (nororipavine), C. echinulata P450 candidates [6, 10]: displayed demethylase activity towards thebaine and oripavine
